B1: TPR t1 (parent)
chain: GACCAAUCUGCCCUCAGAGCUCGAGAACAUCUUCGGAUGCAGAGGAGGCAGGCUUCGGUGGCGCGAUAGCGCCAACGUCCUCAACCUCCAAUGCAUCCCACCACAUGAUGAUGCCUGAAGAGCCUUGGUUUUUUG

Variants of: B1
Assay: polymerase ribozyme fitness, log enrichment relative to wild type (log ratio); higher = more active; in vitro selection for triplet polymerase activity
How it was run: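 The heterodimeric triplet polymerase ribozyme's subunits were each mutagenized into PCR-built libraries and transcribed. Every library was selected once, in triplicate, by annealing with a biotinylated primer, the partner subunit and triplets, incubating frozen at −7 °C, gel-excising extended constructs, capturing on streptavidin beads and running RT-PCR. Input and output libraries were Illumina-sequenced, with genotypes kept only at ≥10 input reads and ≥1 read per output. Fitness, from inverse-variance-weighted replicate averages, is the base-2 logarithm of genotype enrichment over wild-type enrichment.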

| Variant | polymerase ribozyme fitness (log ratio) |
| --- | --- |
| GACCAAUCUGCCCUCAGAGCUCGAGAACAUCUUCGGAUGCAGAGGAGGCAGGUUUCGGUGGCGCGAUAGCGCCAACGUCCUCAACCUCUAAUGCAUCCCACCAAAUGAUGAUGCUUGAAGAGCAUUGGUUUUGUG | -4.17 |
| GACCAAUCUGCCCUCAGAGCUCGAGAACAUCUUCGGAUGCAGAGGAGGCAGGUUUCUGUGGCGCGAUAGCGCCAACGUCCUCAACCUCCAAUGCAUCCCACCACAUGAUGAUGCCUGAAGAGCCUUGGUUUUUUG | 0.599 |
| GACCAAUCUGCCCUCAGAGCUCGAGAACAUCUUCGGAUGCAGAGGAGGCAGGUUUCGGUGGCGCGAUAGCGCCAACGUCCUCAACCUCCAAUGCAUCCCAACACAUGAUGAUGCCUGAAGAGCCUUGGUUUUUUG | -0.961 |
| GACCAAUCUGCCCUCAGAGCUCGAGAACAUCUUCGGAUGCAGAGGAGGCAGGUUUCGGUGGCGCGAUAGCGCCAACGUCCUCAACCUCCAAUGCAUCCCACCACAUGAUGAUGCCUGAAGAGCCUUGGUUUUUUU | -1.02 |
| GACCAAUCUGCCCUCAGAGCUCGAGAACAUCUUCGGAUGCAGAGGAGGCAGGUUUCGGUGGCGCGAUAGCGCCAACGUCCUCAACCUUCAAUGCAUCCCACCACAUGAUGAUGCCUGAAGAGCCUUGGUUUUUUG | 0.129 |
| GACCAAUCUGCCCUCAGAGCUCGAGAACAUCUUCGGAUGCAGAGGAGGCAGGUUUCGCUGGCGCGAUAGCGCCAACGUCCGCAACCUAUAAUGCAUCCCACCACAUGAUGAUGCCUGAACAGCCUUGGUUUUUUG | -4.46 |
| GACCAAUCUGCCCUCAGAGCUCGAGAACAUCUUCGGAUGCAGAGGAGGCAGGUUUCUGUGGCGCGAUAGCGCCAACGUCCUCAACCUCCAAUGCAUCCCAACACAUGAGGAUGCCUGAAGAGCCUUGGUUUUUUG | -6.08 |
| GACCAAUCUGCCCUCAGAGCUCGAGAACAUCUUCGGAUGCAGAGGAGGCAGGUUUCGGUGGCUCGAUAGCGCCAACGUCCUCAACCUCCAAUGCAUCCCACCACAUGAUGAUGCCUGAAGAGCCUUGGUUUUUUG | -1.11 |
| GACCAAUCUGCCCUCAGAGCUCGAGAACAUCUUCGGAUGCAGAGGAGGCAGGUUUCGGUAGCGCGAUAGCGCCAACGUCCUCACCCUCCAAUGCAUCCCACCACAUGAUGAUGCCUGAAGAGCCUUGGUUUUUUG | -0.485 |
| GACCAAUCUGCCCUCAGAGCUCGAGAACAUCUUCGGAUGCAGAGGAGGCAGGUUUCGGUGGCACGAUAGCGCCAACGUCCUCAACCUCCAAUGCAUCCCACAUCAUGAUGAUGCCUGAAGAGCCUUGGUUUUUUG | -7.55 |
| GACCAAUCUGCCCUCAGAGCUCGAGAACAUCUUCGGAUGCAGAGGAGGCAGGUUUCGGUGGCACGAUAGCGCCAACGUCCACAACCUCCAAUGCAUCCCACCACAUGAUGAUGCCUGAAGAGCCUUGGUUUUUUG | -2.54 |
| GACCAAUCUGCCCUCAGAGCUCGAGAACAUCUUCGGAUGCAGAGGAGGCAGGUUUCGUUGGCGCGAUAGUGCCAACGUCCUCAACCUCCAAUGCAUCCCACCACAUGAUGAUGCCUGAAGAGCCUUGGUUUUUUG | -0.221 |
| GACCAAUCUGCCCUCAGAGCUCGAGAACAUCUUCGGAUGCAGAGGAGGCAGGUUUCGGUGGCGCGAUAGCUCCAACGUCCUCAACCUCCAAAGCAUCCCACCACAUGAUGAUGCCUGAUGAGCUUUGGUUUUUUG | -2.62 |
| GACCAAUCUGCCCUCAGAGCUCGAGAACAUCUUCGGAUGCAGAGGAGGCAGGUUUCGGUGGCGCGAUAGCUCCAACGUCCUCAACCUCUAAUGCAUCCCACCACAUGAUGAUGCUUGAAGAGCCUUGGUUUUUUG | -3.54 |
| GACCAAUCUGCCCUCAGAGCUCGAGAACAUCUUCGGAUGCAGAGGAGGCAGGUUUCGGUGGCGCGAUAGCGCCAACGUCCUCAACCUCUAAUGCAUCCCACCACAUGAUGAUGCCUGAAGAGCCUUGGUUUUUUC | -0.361 |
| GACCAAUCUGCCCUCAGAGCUCGAGAACAUCUUCGGAUGCAGAGGAGGCAGGUUUCGGUGACGCGAUAGCGCCUACGUCCUCAACCUCCAAUGCAUCCCACCACAUGAUGAUGCCUGAAGAGCCUUCGUUUUUUG | -1.43 |
| GACCAAUCUGCCCUCAGAGCUCGAGAACAUCUUCGGAUGCAGAGGAGGCAGGUUUCGGUGGCACGAUAGCGCCAACGUCCUCAACCUCCAAUGCAACCCACCACAUGAUGAUGCCUGAAGAGCCUUGGUUUUUUG | -2.3 |
| GACCAAUCUGCCCUCAGAGCUCGAGAACAUCUUCGGAUGCAGAGGAGGCAGGUUUCGGUGGCGCGAUAGCGCCAACGUCCUCAACCUCCAAUGCAUCCCAGCACAUGAUGAUGCCUGAAGAGCCUUGGUAUUUUG | -2.65 |
| GACCAAUCUGCCCUCAGAGCUCGAGAACAUCUUCGGAUGCAGAGGAGGCAGGUUUCGGUGGCGCGAUAGCGCCAACGUCCUCAACCUCCAAUACAUCCCACCCCAUGAUGAUGCCUGAAGAGCCUUGGUUUUUUG | -5.92 |
| GACCAAUCUGCCCUCAGAGCUCGAGAACAUCUUCGGAUGCAGAGGAGGCAGGUUUCGGUGGCGCGAUAGCGCCAACGUCCUCAACCUCCAAUGCAUCCCACCACAUGAUGAUGCCUGAAGAGACUUGGUUUUUUG | 1.2 |
| GACCAAUCUGCCCUCAGAGCUCGAGAACAUCUUCGGAUGCAGAGGAGGCAGGUUUCGGUGGCGCGAUAGCGCCAACGUCCUCAACCUCCAAUGCAUCCCACCACAUGAUGAUGCUUCAAGAGCCUUGGUUUUUUG | -3.76 |

— the RNAGym collection of RNA variant scans (doi:10.1073/pnas.2313332121)
